Laboratory results taken from the supplement of paper PMC10065799, “High-throughput profiling of sequence recognition by tyrosine kinases and SH2 domains using bacterial peptide display” (eLife, 2023).

Tests used:
AncSZ = experiment: phosphorylation enrichment, bacterial display (enrichment ratio); higher = better substrate or ligand; peptides without Tyr show the background
EPHB1 = EPHB1 (UniProt P54762); experiment: as above
EPHB2 = EPHB2 (UniProt P29323); experiment: as above
FGFR1 = FGFR1 (UniProt P11362); experiment: as above
FGFR3 = FGFR3 (UniProt P22607); experiment: as above
Fer (mouse) = experiment: as above
Fes = Fes (UniProt P07332); experiment: as above
Fyn = Fyn (UniProt P06241); experiment: as above
Hck = Hck (UniProt P08631); experiment: as above
Jak2 = Jak2 (UniProt O60674); experiment: as above
MERTK = MERTK (UniProt Q12866); experiment: as above
c-Abl (mouse) = experiment: as above
c-Src = experiment: as above
Grb2 SH2 = Grb2 SH2 (UniProt P62993); experiment: SH2 binding enrichment of the phosphorylated peptide, bacterial display (enrichment ratio); higher = better substrate or ligand; peptides without Tyr show the background
SHP2-C SH2 = experiment: as above
c-Src SH2 = experiment: as above
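Throughout, for SH2 binding enrichment of the phosphorylated peptide, bacterial display: peptide library displayed on the E. coli surface as eCPX fusions, selected cells deep-sequenced, score is each peptide's frequency after selection divided by its frequency in the input.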
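Throughout, for phosphorylation enrichment, bacterial display: 11-residue human phosphosite peptides and single-mutation variants displayed on the E. coli surface, counted by deep sequencing, each peptide's frequency after selection divided by its frequency in the unselected input library; frequency after pTyr selection over input frequency; kinase dosed for 20-30% of maximal phosphorylation in three min.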

Fyn, sequence (P06241 whole entry, looked up): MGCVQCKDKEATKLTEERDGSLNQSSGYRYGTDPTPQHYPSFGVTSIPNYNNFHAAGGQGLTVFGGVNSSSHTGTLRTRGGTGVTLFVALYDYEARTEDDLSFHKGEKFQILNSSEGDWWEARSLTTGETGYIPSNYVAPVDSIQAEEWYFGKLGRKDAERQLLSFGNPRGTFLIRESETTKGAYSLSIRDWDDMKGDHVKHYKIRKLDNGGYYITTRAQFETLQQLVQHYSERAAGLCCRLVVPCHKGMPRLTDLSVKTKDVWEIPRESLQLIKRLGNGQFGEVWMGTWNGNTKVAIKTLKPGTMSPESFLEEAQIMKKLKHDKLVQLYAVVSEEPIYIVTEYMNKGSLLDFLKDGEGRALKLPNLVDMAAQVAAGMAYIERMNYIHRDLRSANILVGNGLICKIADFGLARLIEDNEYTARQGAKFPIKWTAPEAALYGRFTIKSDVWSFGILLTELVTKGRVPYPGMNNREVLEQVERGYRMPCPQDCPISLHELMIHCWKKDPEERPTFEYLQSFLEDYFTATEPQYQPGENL
Grb2 SH2, sequence (P62993 whole entry, looked up): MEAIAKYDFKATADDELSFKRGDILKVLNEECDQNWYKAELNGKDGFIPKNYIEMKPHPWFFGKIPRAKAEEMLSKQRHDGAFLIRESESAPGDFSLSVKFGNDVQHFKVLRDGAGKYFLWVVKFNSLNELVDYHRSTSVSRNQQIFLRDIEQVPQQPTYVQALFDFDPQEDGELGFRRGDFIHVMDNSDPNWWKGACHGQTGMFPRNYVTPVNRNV
EPHB1, sequence (P54762 whole entry, looked up): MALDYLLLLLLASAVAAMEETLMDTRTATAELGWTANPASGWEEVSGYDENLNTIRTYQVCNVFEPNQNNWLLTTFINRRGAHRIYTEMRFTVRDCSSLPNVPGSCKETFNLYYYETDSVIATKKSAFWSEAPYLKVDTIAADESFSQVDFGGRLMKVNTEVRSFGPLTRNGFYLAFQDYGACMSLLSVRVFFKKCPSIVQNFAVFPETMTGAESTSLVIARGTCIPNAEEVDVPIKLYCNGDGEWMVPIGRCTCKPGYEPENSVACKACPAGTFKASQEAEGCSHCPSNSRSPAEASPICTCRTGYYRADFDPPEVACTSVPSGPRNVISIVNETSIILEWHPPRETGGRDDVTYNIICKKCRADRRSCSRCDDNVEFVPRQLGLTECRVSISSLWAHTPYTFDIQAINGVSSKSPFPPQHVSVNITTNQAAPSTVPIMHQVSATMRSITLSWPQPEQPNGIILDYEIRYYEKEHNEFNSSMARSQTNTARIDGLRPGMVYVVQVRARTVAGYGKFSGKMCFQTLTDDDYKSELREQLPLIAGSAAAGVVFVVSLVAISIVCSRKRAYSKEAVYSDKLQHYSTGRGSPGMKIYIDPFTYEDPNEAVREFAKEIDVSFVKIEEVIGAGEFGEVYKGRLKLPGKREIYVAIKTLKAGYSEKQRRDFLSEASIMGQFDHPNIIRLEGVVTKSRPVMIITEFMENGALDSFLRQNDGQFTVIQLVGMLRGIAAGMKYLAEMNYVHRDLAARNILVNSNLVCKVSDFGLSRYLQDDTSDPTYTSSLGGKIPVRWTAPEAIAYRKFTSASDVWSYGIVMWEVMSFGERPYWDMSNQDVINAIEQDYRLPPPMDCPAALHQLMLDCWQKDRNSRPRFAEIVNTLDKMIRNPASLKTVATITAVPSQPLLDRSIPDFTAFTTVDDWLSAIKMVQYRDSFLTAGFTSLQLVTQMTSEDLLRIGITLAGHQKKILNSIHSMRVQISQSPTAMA
EPHB2, sequence (P29323 whole entry, looked up): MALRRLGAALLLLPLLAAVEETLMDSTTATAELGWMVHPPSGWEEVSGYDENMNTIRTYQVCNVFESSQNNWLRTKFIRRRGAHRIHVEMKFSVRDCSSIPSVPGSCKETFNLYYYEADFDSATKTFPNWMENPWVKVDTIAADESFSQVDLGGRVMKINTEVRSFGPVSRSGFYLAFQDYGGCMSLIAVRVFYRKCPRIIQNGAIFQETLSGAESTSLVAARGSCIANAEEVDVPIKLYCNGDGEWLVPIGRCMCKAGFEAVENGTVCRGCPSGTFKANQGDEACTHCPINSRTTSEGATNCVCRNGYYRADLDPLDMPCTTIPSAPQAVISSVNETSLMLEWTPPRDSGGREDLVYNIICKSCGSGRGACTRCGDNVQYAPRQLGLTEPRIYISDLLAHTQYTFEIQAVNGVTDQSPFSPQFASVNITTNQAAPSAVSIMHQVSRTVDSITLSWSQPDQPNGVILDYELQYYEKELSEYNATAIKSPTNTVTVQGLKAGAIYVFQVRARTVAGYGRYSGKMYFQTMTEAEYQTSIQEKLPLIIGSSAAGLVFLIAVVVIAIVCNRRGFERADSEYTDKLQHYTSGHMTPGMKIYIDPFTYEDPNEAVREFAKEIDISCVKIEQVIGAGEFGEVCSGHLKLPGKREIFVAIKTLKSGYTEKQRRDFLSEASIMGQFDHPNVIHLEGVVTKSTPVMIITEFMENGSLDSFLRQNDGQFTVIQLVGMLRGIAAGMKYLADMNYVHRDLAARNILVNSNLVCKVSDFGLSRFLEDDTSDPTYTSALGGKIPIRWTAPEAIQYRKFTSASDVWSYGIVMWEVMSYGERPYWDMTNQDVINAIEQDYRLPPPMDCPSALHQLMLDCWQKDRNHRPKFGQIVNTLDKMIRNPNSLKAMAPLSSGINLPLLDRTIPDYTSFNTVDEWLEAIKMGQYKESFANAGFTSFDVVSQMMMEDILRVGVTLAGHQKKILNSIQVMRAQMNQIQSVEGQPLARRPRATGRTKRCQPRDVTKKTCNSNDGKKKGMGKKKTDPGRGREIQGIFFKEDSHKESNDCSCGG
Jak2, sequence (O60674 whole entry, looked up): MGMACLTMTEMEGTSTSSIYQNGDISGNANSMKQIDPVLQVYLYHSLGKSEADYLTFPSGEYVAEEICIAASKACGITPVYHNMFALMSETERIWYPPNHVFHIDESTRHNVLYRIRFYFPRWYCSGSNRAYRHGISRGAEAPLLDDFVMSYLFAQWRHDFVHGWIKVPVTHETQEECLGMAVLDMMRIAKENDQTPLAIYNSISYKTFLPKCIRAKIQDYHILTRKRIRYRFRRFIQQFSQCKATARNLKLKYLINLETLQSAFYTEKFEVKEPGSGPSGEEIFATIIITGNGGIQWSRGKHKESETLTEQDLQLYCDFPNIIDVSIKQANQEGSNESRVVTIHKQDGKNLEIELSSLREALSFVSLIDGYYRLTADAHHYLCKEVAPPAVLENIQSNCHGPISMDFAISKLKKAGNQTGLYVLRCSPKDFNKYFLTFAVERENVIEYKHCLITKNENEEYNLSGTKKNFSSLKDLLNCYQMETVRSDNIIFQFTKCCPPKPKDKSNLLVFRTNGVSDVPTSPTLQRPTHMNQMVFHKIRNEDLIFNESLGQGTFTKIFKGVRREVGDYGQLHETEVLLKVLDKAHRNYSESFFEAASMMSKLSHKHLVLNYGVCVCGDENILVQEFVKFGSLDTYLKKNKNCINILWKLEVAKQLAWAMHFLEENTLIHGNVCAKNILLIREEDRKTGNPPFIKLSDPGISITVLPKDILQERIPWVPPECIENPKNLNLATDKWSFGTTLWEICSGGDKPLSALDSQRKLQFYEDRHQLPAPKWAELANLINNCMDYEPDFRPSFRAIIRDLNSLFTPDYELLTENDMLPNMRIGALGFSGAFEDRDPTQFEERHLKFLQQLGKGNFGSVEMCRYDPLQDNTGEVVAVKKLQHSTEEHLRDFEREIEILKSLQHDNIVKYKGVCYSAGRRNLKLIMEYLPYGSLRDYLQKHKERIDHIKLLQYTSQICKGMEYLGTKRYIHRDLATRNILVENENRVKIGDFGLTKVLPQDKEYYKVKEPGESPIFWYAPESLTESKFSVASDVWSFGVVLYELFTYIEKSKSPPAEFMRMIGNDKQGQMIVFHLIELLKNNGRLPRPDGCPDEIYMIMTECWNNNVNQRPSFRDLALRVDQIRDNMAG
Hck, sequence (P08631 whole entry, looked up): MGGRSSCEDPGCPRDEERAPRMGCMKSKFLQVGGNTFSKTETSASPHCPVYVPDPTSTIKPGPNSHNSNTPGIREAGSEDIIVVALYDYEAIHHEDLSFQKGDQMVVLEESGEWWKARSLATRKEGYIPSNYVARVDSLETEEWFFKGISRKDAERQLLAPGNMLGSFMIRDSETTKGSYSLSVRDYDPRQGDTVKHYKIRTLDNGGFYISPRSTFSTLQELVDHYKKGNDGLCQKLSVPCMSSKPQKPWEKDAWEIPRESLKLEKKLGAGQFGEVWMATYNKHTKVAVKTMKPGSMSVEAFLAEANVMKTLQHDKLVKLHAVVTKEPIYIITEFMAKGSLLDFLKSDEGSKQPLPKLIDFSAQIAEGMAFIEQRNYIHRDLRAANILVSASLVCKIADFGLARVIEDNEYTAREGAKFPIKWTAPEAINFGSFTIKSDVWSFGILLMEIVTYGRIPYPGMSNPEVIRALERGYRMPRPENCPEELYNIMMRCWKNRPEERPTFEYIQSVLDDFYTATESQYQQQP

Row | Sequence | phosphorylation enrichment (AncSZ) | phosphorylation enrichment (EPHB1) | phosphorylation enrichment (EPHB2) | phosphorylation enrichment (FGFR1) | phosphorylation enrichment (FGFR3) | phosphorylation enrichment (Fer (mouse)) | phosphorylation enrichment (Fes) | phosphorylation enrichment (Fyn) | phosphorylation enrichment (Hck) | phosphorylation enrichment (Jak2) | phosphorylation enrichment (MERTK) | phosphorylation enrichment (c-Abl (mouse)) | phosphorylation enrichment (c-Src) | SH2 binding enrichment (Grb2 SH2) | SH2 binding enrichment (SHP2-C SH2) | SH2 binding enrichment (c-Src SH2)
1 | SSEFHYVGGFF [CTSC_Y347_YF] | 0.949 | 0.646 | 0.532 | 0.572 | 0.813 | 0.558 | 1.16 | 0.516 | 0.544 | 0.904 | 0.428 | 0.897 | 0.707 | 0.688 | 0.607 | 0.376
2 | AKIDGYITSYR | 0.809 | 0.52 | 0.51 | 0.469 | 0.556 | 0.338 | 0.763 | 0.433 | 0.407 | 0.558 | 0.415 | 0.565 | 0.417 | 0.815 | 0.739 | 0.501
3 | NAGDYYDLYGG [PTPN11_Y63_T59A] | 5.5 | 16.3 | 15.9 | 19.3 | 18.9 | 2.53 | 1.55 | 7.13 | 6.95 | 4.53 | 3.96 | 1.13 | 6.14 | 0.89 | 0.595 | 0.633
4 | VTPVMYTFDEF [COL10A1_Y623_G618V_YF] | 1.03 | 0.665 | 0.668 | 0.591 | 0.654 | 0.458 | 1.19 | 0.737 | 0.531 | 1.02 | 0.962 | 0.662 | 0.715 | 0.93 | 0.698 | 0.772
5 | LIHLHYIRRDY [BBS4_Y43_K46R] | 0.952 | 0.334 | 0.526 | 0.417 | 0.759 | 0.41 | 0.773 | 0.389 | 0.47 | 0.562 | 0.524 | 0.524 | 0.388 | 1.52 | 1.17 | 0.763
6 | DGQVNYEELVQ [CALM1_Y139_F142L] | 1.47 | 1.04 | 0.826 | 0.819 | 0.735 | 0.639 | 1.25 | 0.704 | 0.594 | 1.43 | 0.659 | 0.781 | 0.614 | 0.835 | 0.733 | 0.745
7 | FHNSEYGELSE [FLT4_Y1337_Y1333H] | 1.18 | 0.613 | 0.504 | 0.569 | 0.738 | 0.473 | 1.23 | 1.1 | 0.724 | 1.05 | 0.352 | 0.806 | 0.849 | 0.893 | 0.992 | 0.452
8 | GLAELYEYQKK [CKAP5_Y1854_K1857Q] | 1.08 | 0.909 | 0.472 | 0.61 | 0.629 | 0.87 | 0.985 | 0.532 | 0.857 | 0.917 | 0.574 | 0.529 | 0.813 | 0.671 | 0.697 | 0.509
9 | TLAHKYHGGGG [HBB_Y146_A141T] | 0.652 | 0.46 | 0.398 | 0.611 | 0.494 | 0.436 | 0.973 | 0.497 | 0.681 | 1.1 | 0.577 | 1.03 | 0.675 | 0.567 | 0.67 | 0.558
10 | GRERPYGGGGG [FUS_Y526_R521G] | 0.498 | 0.654 | 0.492 | 1.02 | 0.487 | 0.6 | 0.565 | 0.357 | 0.787 | 0.512 | 0.968 | 0.416 | 0.854 | 0.722 | 0.824 | 0.485
11 | LSSEMCVKSFT [F5_Y2149_Y2149C_YF] | 1.36 | 0.472 | 1.34 | 1.07 | 1.13 | 0.815 | 1.45 | 0.683 | 0.971 | 1.11 | 0.854 | 0.932 | 0.726 | 1 | 0.603 | 0.641
12 | DERQPYVHMNG [IGF1R_Y1346_A1347V] | 0.696 | 0.436 | 0.5 | 0.592 | 0.627 | 0.446 | 0.81 | 0.438 | 0.471 | 0.786 | 0.428 | 0.503 | 0.484 | 0.729 | 0.704 | 0.705
13 | LYSNAYLNDLA [ALDH1A1_Y119] | 0.831 | 0.853 | 0.685 | 0.484 | 0.776 | 4.03 | 0.914 | 1.19 | 1.45 | 0.667 | 5.82 | 0.396 | 1.1 | 4.68 | 0.613 | 1.84
14 | SLQAHYDTPRS [DOK7_Y405_R402Q] | 0.513 | 0.435 | 0.479 | 0.352 | 0.38 | 0.593 | 0.539 | 0.366 | 0.37 | 0.53 | 0.529 | 3.19 | 0.368 | 0.916 | 0.636 | 5.05
15 | ETMNKYDLSGR [MYEF2_Y164] | 0.667 | 0.383 | 0.391 | 0.421 | 0.498 | 0.422 | 0.696 | 0.434 | 0.448 | 0.731 | 0.633 | 0.507 | 0.398 | 0.912 | 0.639 | 0.44
16 | EACRSYSHVVL [CHST6_Y168] | 0.808 | 0.454 | 0.498 | 0.533 | 0.701 | 0.824 | 0.711 | 0.611 | 0.548 | 0.602 | 0.463 | 0.881 | 0.538 | 0.958 | 2.2 | 2.24
17 | LDAFIYNAAVL [GRIN2A_Y730_D731N] | 1.72 | 1.3 | 1.57 | 2.36 | 1.62 | 1.95 | 2.08 | 4.57 | 4.05 | 0.874 | 0.704 | 0.972 | 2.32 | 0.927 | 0.761 | 0.5

Row | Sequence | phosphorylation enrichment (AncSZ) | phosphorylation enrichment (EPHB1) | phosphorylation enrichment (EPHB2) | phosphorylation enrichment (FGFR1) | phosphorylation enrichment (FGFR3) | phosphorylation enrichment (Fer (mouse)) | phosphorylation enrichment (Fes) | phosphorylation enrichment (Fyn) | phosphorylation enrichment (Hck) | phosphorylation enrichment (Jak2) | phosphorylation enrichment (MERTK) | phosphorylation enrichment (c-Abl (mouse)) | phosphorylation enrichment (c-Src) | SH2 binding enrichment (Grb2 SH2) | SH2 binding enrichment (SHP2-C SH2) | SH2 binding enrichment (c-Src SH2)
18 | LSALDYKIFFF [WDPCP_Y210_YF] | 1.5 | 0.588 | 0.71 | 0.753 | 0.833 | 0.672 | 1.05 | 0.418 | 0.585 | 0.991 | 0.332 | 0.725 | 0.717 | 0.84 | 1.54 | 0.557
19 | DMDATYRPMYS [JUP_Y701] | 0.678 | 0.441 | 0.525 | 0.544 | 0.63 | 0.463 | 0.768 | 0.563 | 0.677 | 0.65 | 0.407 | 0.656 | 0.568 | 0.747 | 0.521 | 0.513
20 | FLLTVYSIFSK [SGCE_Y38] | 1.15 | 0.643 | 0.589 | 0.496 | 0.647 | 0.594 | 1.05 | 2.59 | 2.3 | 1.1 | 1.17 | 0.899 | 3.17 | 2.05 | 1.93 | 1.38
21 | KRIETYFSKNF [PLP1_Y50_L46R_YF] | 0.703 | 0.43 | 0.417 | 0.516 | 0.532 | 0.46 | 0.874 | 0.499 | 0.47 | 0.723 | 0.395 | 0.752 | 0.467 | 0.949 | 0.51 | 0.559
22 | RDSQLYAVDYE [MRPS34_Y34] | 2.1 | 0.904 | 1.05 | 1.08 | 1.38 | 0.871 | 2.77 | 1.33 | 1.41 | 2.07 | 2.12 | 0.966 | 1.63 | 0.69 | 0.631 | 0.545
23 | NGEDPYAGSTD [XRCC1_Y515] | 1.21 | 0.431 | 0.508 | 0.646 | 0.67 | 0.431 | 1.1 | 0.524 | 0.581 | 0.809 | 0.399 | 0.779 | 0.55 | 0.638 | 0.782 | 0.547
24 | GLIPAYHWVIM [NMNAT1_Y64_R66W] | 1.49 | 0.755 | 0.731 | 8.56 | 6.04 | 5.52 | 1.25 | 0.503 | 0.543 | 1.68 | 1.8 | 0.92 | 0.526 | 0.878 | 0.52 | 0.535
25 | AFDNLYFWDQD [ERBB2_Y1221_YF] | 2.1 | 1.42 | 1.25 | 6.87 | 6.95 | 1.68 | 1.93 | 5.76 | 4.26 | 1.56 | 5.13 | 0.981 | 5.12 | 0.865 | 0.59 | 0.495
26 | NWGKKYPTCNS [PTPRZ1_Y53] | 0.771 | 0.507 | 0.558 | 0.459 | 0.603 | 0.485 | 0.978 | 0.523 | 0.463 | 0.85 | 0.43 | 0.839 | 0.435 | 1.06 | 1.03 | 0.787
27 | KKMKCYHVGKV [HARS2_Y151_R150C] | 0.579 | 0.444 | 0.431 | 0.395 | 0.552 | 0.356 | 0.723 | 0.317 | 0.383 | 0.588 | 0.423 | 0.627 | 0.408 | 1.35 | 0.954 | 1.12
28 | YLEKYYKFGCR [NNMT_Y25_S29C] | 1.18 | 0.775 | 0.588 | 0.569 | 0.928 | 0.55 | 1.55 | 0.549 | 0.564 | 1.34 | 0.649 | 1.02 | 0.739 | 0.938 | 0.94 | 0.681
29 | LSDGPYSNSFE [EPOR_Y485_P488S_YF] | 1.49 | 0.982 | 1.11 | 1.07 | 0.976 | 1.36 | 1.65 | 1.23 | 0.915 | 1.18 | 0.858 | 1.2 | 0.83 | 1 | 0.525 | 1.22
30 | SVVVPYEPTEV [TP53_Y220_P223T] | 0.992 | 0.725 | 0.765 | 0.481 | 0.742 | 0.709 | 1.33 | 0.522 | 0.506 | 1.27 | 0.578 | 0.885 | 0.482 | 0.66 | 0.619 | 0.864
31 | ARMTNYGLPRF [TSPAN12_Y138_YF] | 0.547 | 0.424 | 0.542 | 0.42 | 0.501 | 0.409 | 0.636 | 0.401 | 0.413 | 0.503 | 0.511 | 0.496 | 0.519 | 0.887 | 1.33 | 0.505
32 | TSAEGYQDVRD [ABLIM1_Y439_P434T] | 1.17 | 0.73 | 0.774 | 0.77 | 0.659 | 0.551 | 1.36 | 0.679 | 0.691 | 1.16 | 0.517 | 0.766 | 0.602 | 0.909 | 0.779 | 4.85
33 | QNAGDYFDLFG [PTPN11_Y62_T59A_YF] | 6.62 | 21.9 | 16.2 | 25.5 | 24.5 | 0.681 | 1.57 | 0.516 | 1.02 | 13.4 | 1.71 | 1.44 | 1.2 | 0.997 | 0.733 | 0.505
